Each block holds one binder with its values, some of them ahead of it.
How the values were obtained:
wild-type CNTFR-HIS [1] = target: T1, wild-type CNTFR-HIS (human, UniProt P26992 23-342); experiment: flow cytometry, yeast-displayed CLCF1 construct, soluble CNTFR-HIS titrated, anti-HIS Hilyte Fluor 488 detection
T1 construct: also called wtCNTFR-HIS; HIS tagged CNTFR; not shown: HIS tag
T1 sequence: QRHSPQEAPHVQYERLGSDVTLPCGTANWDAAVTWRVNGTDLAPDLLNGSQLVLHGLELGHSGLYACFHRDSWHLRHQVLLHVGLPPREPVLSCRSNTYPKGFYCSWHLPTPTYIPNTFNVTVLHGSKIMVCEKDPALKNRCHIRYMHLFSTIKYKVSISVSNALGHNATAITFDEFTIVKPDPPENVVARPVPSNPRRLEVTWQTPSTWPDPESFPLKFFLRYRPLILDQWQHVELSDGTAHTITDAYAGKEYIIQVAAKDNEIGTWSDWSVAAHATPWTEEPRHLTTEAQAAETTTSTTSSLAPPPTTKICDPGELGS
Protocol: (§1) Using equilibrium binding conditions and screened by flow cytometric sorting (FACS), high throughput screening of the CLCF1 library using wtCNTFR-HIS was performed to enrich variants showing increased CLCF1 binding. Expression signal was used to normalize CNTFR binding to distinguish high expressers from high affinity binders. Screening stringency was increased throughout sorting by decreasing the concentration of wtCNTFR-HIS incubated with the library. […] Thus a variant containing the three mutations (named FRR-CLCF1) was chosen for further characterization (FIG. 7).
(§2) Yeast displaying CLCF1 constructs were incubated with varying concentrations of CNTFR for 12 h at room temperature to reach equilibrium binding. This was followed by washing with BPBS and resuspension in PBSA with 1:500 ratio of chicken anti-c-Myc (Invitrogen) for 30 min at 4 C. Yeast were then washed and pelleted, and secondary labeling was performed on ice for 30 min using PBSA with 1:100 dilution of goat anti-chicken PE (Santa Cruz) and mouse anti-HIS Hilyte Fluor 488 (Anaspec). Then samples were washed and analyzed by flow cytometry using Accuri (BD Biosciences). Samples were analyzed on BD Bioscience software, and data were analyzed using FlowJo software. Kd values were determined by fitting to a four-parameter sigmoidal curve. Error bars represent the standard deviation of triplicate experiments.

wild-type CNTFR-HIS [2] = target: T1, wild-type CNTFR-HIS; experiment: flow cytometry, yeast-displayed CLCF1 construct, soluble CNTFR-HIS titrated, apparent Kd from a four-parameter fit
Protocol: as §1, §2

wild-type CNTFR-Fc [3] = target: T2, wild-type CNTFR-Fc (human, UniProt P26992 23-342); experiment: sandwich ELISA, soluble CLCF1 titrated against 2 nM CNTFR-Fc, anti-mouse-Fc capture, anti-CLCF1 detection
T2 construct: also called wtCNTFR-Fc; not shown: Fc domain; captured with anti-mouse Fc antibody
T2 sequence: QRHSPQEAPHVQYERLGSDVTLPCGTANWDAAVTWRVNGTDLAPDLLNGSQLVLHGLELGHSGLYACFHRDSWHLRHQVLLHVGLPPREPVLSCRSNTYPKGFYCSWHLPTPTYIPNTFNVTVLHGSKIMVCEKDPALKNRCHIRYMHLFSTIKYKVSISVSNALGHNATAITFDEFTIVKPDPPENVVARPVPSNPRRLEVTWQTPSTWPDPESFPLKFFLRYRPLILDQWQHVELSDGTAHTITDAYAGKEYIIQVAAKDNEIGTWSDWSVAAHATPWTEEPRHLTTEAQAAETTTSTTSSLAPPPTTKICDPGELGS
Protocol: (§3) The CLCF1 variants isolated from screening were cloned into the pET28b bacterial expression plasmid and expressed and purified. […] A sandwich ELISA was performed using an anti-mouse Fc antibody as a capturing agent for wtCNTFR-Fc, followed by an anti-CLCF1 antibody as a detection agent for the bound complex. […] ELISA was also used to measure binding interactions with the gp130 and LIFR beta receptors.
(§4) To measure the solution-phase binding interaction between the CLCF1 constructs and CNTFR, different concentrations of soluble, recombinant CLCF1 variants and wtCLCF1 were incubated with 2 nM CNTFR-Fc in BPBS for 12 h at room temperature. The mixture was then added to 96-well plates coated with anti-mouse-Fc antibody for 1 h followed by washing with BPBS twice. Subsequently, the wells were incubated with 1:1000 diluted anti-CLCF1 rabbit antibody for 2 h at room temperature then washed four times with BPBS. The wells were incubated with a 1:1000 diluted HRP conjugated anti-rabbit antibody for 2 h at room temperature, and washed four times with BPBS. 1-Step Ultra TMB ELISA was used for the readout, which was measured using a plate reader (Tecan).

wild-type CNTFR-Fc [4] = target: T2, wild-type CNTFR-Fc; experiment: cell-free ELISA, HIS-tagged soluble CLCF1 titrated against 2 nM CNTFR-Fc, anti-HIS capture, HRP anti-mouse detection
Protocol: 96-well plates were coated with 10 μg/mL of anti-HIS antibody overnight and blocked with 5% milk for 1 h. The plates were then washed twice with BPBS. Different concentrations of soluble constructs of HIS-tagged CLCF1 variants were incubated with 2 nM CNTFR-Fc in BPBS for 12 h at room temperature. The mixture was then added to 96-well plates coated with anti-HIS antibody for 1 h followed by washing with BPBS twice. Subsequently, the wells were incubated with 1:1000 diluted HRP conjugated anti-mouse antibody for 1 h at room temperature then washed four times with PBS. 1-Step Ultra TMB ELISA (Thermo Fisher Scientific) was used for the readout detected using a plate reader (Tecan).

wild-type CNTFR-HIS [5] = target: T1, wild-type CNTFR-HIS; experiment: yeast surface display, equilibrium titration with CNTFR-HIS, flow cytometry (apparent Kd)
Protocol: as §1, §2

wild-type CNTFR-HIS [6] = target: T1, wild-type CNTFR-HIS; experiment: flow cytometry, yeast-displayed CLCF1 construct, soluble CNTFR titrated
wild-type CNTFR-HIS [7] = target: T1, wild-type CNTFR-HIS; experiment: flow cytometry, yeast-displayed CLCF1 construct, soluble CNTFR titrated, apparent Kd
wild-type CNTFR-Fc [8] = target: T2, wild-type CNTFR-Fc; experiment: sandwich ELISA, soluble CLCF1 titrated against 2 nM CNTFR-Fc, apparent Kd
Protocol: as §3, §4

Kd (wild-type CNTFR-HIS [5]): 3.1 nM
B4: yeast-displayed CLCF1 variant L86F (ligand)
chain: LNRTGDPGPGPSIQKTYDLTRYLEHQLRSLAGTYLNYLGPPFNEPDFNPPRLGAETLPRATVDLEVWRSLNDKLRLTQNYEAYSHFLCYLRGLNRRAATAELRRSLAHFCTSLQGLLGSIAGVMAALGYPLPQPLPGTEPTWTPGPAHSDFLQKMDDFWLLKELQTWLWRSAKDFNRLKKKMQPPAAAVTLHLGAHGF

EC50 (read off the curve) (wild-type CNTFR-HIS [6]): ~0.1 nM | Kd (wild-type CNTFR-HIS [7]): 0.06 nM
B8: yeast-displayed CLCF1 variant with Y22C, L86F, Q96R, H148R, W169L, K180R (ligand, not shown: large carriers; small tags and cut ends)
chain: LNRTGDPGPGPSIQKTYDLTRCLEHQLRSLAGTYLNYLGPPFNEPDFNPPRLGAETLPRATVDLEVWRSLNDKLRLTQNYEAYSHFLCYLRGLNRRAATAELRRSLAHFCTSLQGLLGSIAGVMAALGYPLPQPLPGTEPTWTPGPARSDFLQKMDDFWLLKELQTWLLRSAKDFNRLKRKMQPPAAAVTLHLGAHGF
notes: also called the resulting variant (five consensus mutations combined with Y22C)

EC50 (read off the curve) (wild-type CNTFR-HIS [6]): ~1 nM | Kd (wild-type CNTFR-HIS [7]): 0.83 nM | EC50 (read off the curve) (wild-type CNTFR-HIS [1]): ~1 nM
B9: yeast-displayed FRR-CLCF1 (L86F, Q96R, H148R) (ligand, not shown: large carriers; small tags and cut ends)
chain: LNRTGDPGPGPSIQKTYDLTRYLEHQLRSLAGTYLNYLGPPFNEPDFNPPRLGAETLPRATVDLEVWRSLNDKLRLTQNYEAYSHFLCYLRGLNRRAATAELRRSLAHFCTSLQGLLGSIAGVMAALGYPLPQPLPGTEPTWTPGPARSDFLQKMDDFWLLKELQTWLWRSAKDFNRLKKKMQPPAAAVTLHLGAHGF
notes: also called the variant with all three mutations

Kd (wild-type CNTFR-HIS [5]): 7.9 nM | EC50 (read off the curve) (wild-type CNTFR-HIS [1]): ~6 nM
B14: yeast-displayed CLCF1 variant Q96R (ligand, not shown: large carriers; small tags and cut ends)
chain: LNRTGDPGPGPSIQKTYDLTRYLEHQLRSLAGTYLNYLGPPFNEPDFNPPRLGAETLPRATVDLEVWRSLNDKLRLTQNYEAYSHLLCYLRGLNRRAATAELRRSLAHFCTSLQGLLGSIAGVMAALGYPLPQPLPGTEPTWTPGPAHSDFLQKMDDFWLLKELQTWLWRSAKDFNRLKKKMQPPAAAVTLHLGAHGF

The next lines start with the binder.

B1: v2 (ligand)
CLCF1 variant displayed on yeast as Aga2p fusion with c-myc tag: LNRTGDPGPGPSIQKTYDLTRYLEHQLRSLAGTYLNYLGPPFNEPDFNPPRLGAETLPRATVDLEVWRSLNDKLRLTQNYEAYSHFLCYLRGLNRRAATAELRRSLAHFCTSLQGLLGSIAGVMAALGYPLPQPLPGTEPTWTPGPAHSDFLQKMDDFWLLKELQTWLWRSAKDFNRLKKKMQPPAAAVTLHLGAHGF
EC50 (read off the curve) (wild-type CNTFR-HIS [1]): ~4 nM | Kd (wild-type CNTFR-HIS [2]): 3.1 nM

B2: recombinant soluble wild-type human CLCF1 (ligand)
chain: LNRTGDPGPGPSIQKTYDLTRYLEHQLRSLAGTYLNYLGPPFNEPDFNPPRLGAETLPRATVDLEVWRSLNDKLRLTQNYEAYSHLLCYLRGLNRQAATAELRRSLAHFCTSLQGLLGSIAGVMAALGYPLPQPLPGTEPTWTPGPAHSDFLQKMDDFWLLKELQTWLWRSAKDFNRLKKKMQPPAAAVTLHLGAHGF
notes: Expressed in E. coli from pET28b and purified from inclusion bodies by RP-HPLC; also called wtCLCF1; wild-type CLCF1
EC50 (read off the curve) (wild-type CNTFR-Fc [3]): ~80 nM | EC50 (read off the curve) (wild-type CNTFR-Fc [4]): ~80 nM

B3: yeast-displayed CLCF1 variant H148R (ligand)
chain: LNRTGDPGPGPSIQKTYDLTRYLEHQLRSLAGTYLNYLGPPFNEPDFNPPRLGAETLPRATVDLEVWRSLNDKLRLTQNYEAYSHLLCYLRGLNRRAATAELRRSLAHFCTSLQGLLGSIAGVMAALGYPLPQPLPGTEPTWTPGPARSDFLQKMDDFWLLKELQTWLWRSAKDFNRLKKKMQPPAAAVTLHLGAHGF
Kd (wild-type CNTFR-HIS [5]): 4.2 nM

B5: v4 (ligand)
CLCF1 variant displayed on yeast as Aga2p fusion with c-myc tag: LNRTGDPGPGPSIQKTYDLTRYLEHQLRSLAGTYLNYLGPPFNEPDFNPPRLGAETLPRATVDLEVWRSLNDKLRLTQNYEAYSHFLCYLRGLNRRAATAELRRSLAHFCTSLQGLLGSIAGVMAALGYPLPQPLPGTEPTWTPGPARSDFLQKMDDFWLLKELQTWLLRSAKDFNRLKRKMQPPAAAVTLHLGAHGF
notes: The five consensus mutations without Y22C
EC50 (read off the curve) (wild-type CNTFR-HIS [6]): ~0.4 nM | Kd (wild-type CNTFR-HIS [7]): 0.08 nM

B6: v2 (ligand)
CLCF1 variant displayed on yeast as Aga2p fusion with c-myc tag: LNRTGDPGPGPSIQKTYDLTRYLEHQLRSLAGTYLNYLGPPFNEPDFNPPRLGAETLPRATVDLEVWRSLNDKLRLTQNYEAYSHFLCYLRGLNRRAATAELRRSLAHFCTSLQGLLGSIAGVMAALGYPLPQPLPGTEPTWTPGPARSDFLQKMDDFWLLKELQTWLLRSAKDFNRLKKKMQPPAAAVTLHLGAHGF
Kd (wild-type CNTFR-HIS [7]): 0.22 nM

B7: v3 (ligand)
CLCF1 variant displayed on yeast as Aga2p fusion with c-myc tag: LNRTGDPGPGPSIQKTYDLTRYLEHQLRSLAGTYLNYLGPPFNEPDFNPPRLGAETLPRATVDLEVWRSLNDKLRLTQNYEAYSHFLCYLRGLNRRAATAELRRSLAHFCTSLQGLLGSIAGVMAALGYPLPQPLPGTEPTWTPGPARSDFLQKMDDFWLLKELQTWLWRSAKDFNRLKRKMQPPAAAVTLHLGAHGF
Kd (wild-type CNTFR-HIS [7]): 0.28 nM

B10: v1 (ligand)
soluble CLCF1 variant: LNRTGDPGPGPSIQKTYDLTRYLEHQLRSLAGTYLNYLGPPFNEPDFNPPRLGAETLPRATVDLEVWRSLNDKLRLTQNYEAYSHLLCYLRGLNRRAATAELRRSLAHFCTSLQGLLGSIAGVMAALGYPLPQPLPGTEPTWTPGPAHSDFLQKMDDFWLLKELQTWLWRSAKDFNRLKKKMQPPAAAVTLHLGAHGF
EC50 (read off the curve) (wild-type CNTFR-Fc [3]): ~6 nM | Kd (wild-type CNTFR-Fc [8]): 6.6 nM

B11: v3 (ligand)
soluble CLCF1 variant: LNRTGDPGPGPSIQKTYDLTRYLEHQLRSLAGTYLNYLGPPFNEPDFNPPRLGAETLPRATVDLEVWRSLNDKLRLTQNYEAYSHLLCYLRGLNRRAATAELRRSLAHFCTSLQGLLGSIAGVMAALGYPLPQPLPGTEPTWTPGPARSDFLQKMDDFWLLKELQTWLWRSAKDFNRLKKKMQPPAAAVTLHLGAHGF
EC50 (read off the curve) (wild-type CNTFR-Fc [3]): ~2 nM | Kd (wild-type CNTFR-Fc [8]): 2.5 nM

B12: v5 (ligand)
CLCF1 variant displayed on yeast as Aga2p fusion with c-myc tag: LNRTGDPGPGPSIQKTYDLTRCLEHQLRSLAGTYLNYLGPPFNEPDFNPPRLGAETLPRATVDLEVWRSLNDKLRLTQNYEAYSHFLCYLRGLNRRAATAELRRSLAHFCTSLQGLLGSIAGVMAALGYPLPQPLPGTEPTWTPGPARSDFLQKMDDFWLLKELQTWLWRSAKDFNRLKKKMQPPAAAVTLHLGAHGF
Kd (wild-type CNTFR-HIS [7]): 0.18 nM

B13: v2 (ligand)
soluble CLCF1 variant: LNRTGDPGPGPSIQKTYDLTRYLEHQLRSLAGTYLNYLGPPFNEPDFNPPRLGAETLPRATVDLEVWRSLNDKLRLTQNYEAYSHFLCYLRGLNRRAATAELRRSLAHFCTSLQGLLGSIAGVMAALGYPLPQPLPGTEPTWTPGPAHSDFLQKMDDFWLLKELQTWLWRSAKDFNRLKKKMQPPAAAVTLHLGAHGF
EC50 (read off the curve) (wild-type CNTFR-Fc [3]): ~2 nM | Kd (wild-type CNTFR-Fc [8]): 2.3 nM

Source: patent publication US20190328837A1 (Stanford University, published 2019)
